Assay results taken from patent US20170073408A1 (Amgen, published 2017).
Residue numbers refer to the chain shown, from its start.

T1: recombinant human activin A (mature) (human, UniProt P08476 311-426)
T1 construct: also called r-HuActivin A; rhActivin A
T1 sequence: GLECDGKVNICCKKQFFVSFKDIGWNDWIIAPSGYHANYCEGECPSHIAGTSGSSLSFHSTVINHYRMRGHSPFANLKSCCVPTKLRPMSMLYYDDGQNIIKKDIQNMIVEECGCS

T2: A/B13-39
T2 construct: also called Activin A 13/39 B
T2 activin A/B chimeric subunit: T1 sequence with K13R, K14Q, V18I, S19D, K21R, D22L, S33T, H36Y, A37G

T3: A/B82-107
T3 activin A/B chimeric subunit: T1 sequence with V82I, R87S, P88T, Y94F, G97E, Q98Y, I101V, K103R, I105V, Q106P

T4: BMP4 (UniProt P12644 293-408)
T4 construct: Bought
T4 sequence (looked up): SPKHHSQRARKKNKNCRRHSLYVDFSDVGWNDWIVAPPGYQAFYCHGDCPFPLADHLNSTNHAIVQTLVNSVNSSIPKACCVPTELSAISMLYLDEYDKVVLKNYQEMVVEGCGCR

T5: GDF-8 (UniProt O14793 267-375)
T5 construct: Bought
T5 sequence (looked up): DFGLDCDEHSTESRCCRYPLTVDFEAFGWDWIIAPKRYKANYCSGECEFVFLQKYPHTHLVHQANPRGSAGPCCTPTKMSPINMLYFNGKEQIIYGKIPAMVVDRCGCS

T6: GDF-11 (UniProt O95390 299-407)
T6 construct: Bought
T6 sequence (looked up): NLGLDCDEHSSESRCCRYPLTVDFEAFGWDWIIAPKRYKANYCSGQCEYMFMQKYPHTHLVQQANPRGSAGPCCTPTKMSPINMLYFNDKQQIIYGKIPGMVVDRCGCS

T7: TGF-β-3 (UniProt P10600 301-412)
T7 construct: Bought
T7 sequence (looked up): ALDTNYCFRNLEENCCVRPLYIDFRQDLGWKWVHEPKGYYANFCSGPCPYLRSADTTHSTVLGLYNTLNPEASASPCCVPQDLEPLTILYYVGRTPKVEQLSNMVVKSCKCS

T8: activin B (UniProt P09529 293-407)
T8 construct: Bought (R & D Systems)
T8 sequence (looked up): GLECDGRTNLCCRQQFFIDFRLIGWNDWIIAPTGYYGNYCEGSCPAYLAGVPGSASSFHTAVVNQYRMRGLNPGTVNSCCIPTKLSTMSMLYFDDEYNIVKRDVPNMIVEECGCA

B1: A6 (antibody, V domains shown)
VH: QVQLQQWGAGLLKPSETLSLTCAVYGGSFSAYYWSWIRQPPGKGLEWIGEINHSGGTNYNPSLKSRVTISVDTSKNQFSLKLSSVTAADTAVYYCARVQWLELAYFDYWGQGTLVTVSS
VL: DIQMTQSPSSLSASVGDRVTITCRASQSISNYLNWYQQRPGKAPKLLIYATSSLQSGVPSRFSGSGSGTDFTLTISSLQPEDFVSYYCQQSYSISPTFGGGTKVENK
notes: also called antibody A6; L6H6
B2: anti-activin A monoclonal antibody A2 (antibody, human IgG2, kappa, V domains shown)
VH: QVQLVESGGGVVQPGRSLRLSCAASGFTFSSYGMHWVRQAPGKGLEWVAVIWYDGSNKYHADSVKGRFTISRDNSKNTLYLQVNSLRAEDTAVYYCVRSRNWNYDNYYYGLDVWGQGTTVTVSS
VL: DIQMTQSPSSLSASVGDRVTITCRASQGIRNNLGWYQQKPGKAPKRLIYAASSLQSGVPSRFSGSGSGTEFTLTISSLQPEDFTTYYCLQHNSYPWTFGQGTKVEIKR
notes: Fully human antibody from XenoMouse hybridoma; also called L2H2
B3: anti-activin A monoclonal antibody A3 (antibody, human IgG2, kappa, V domains shown)
VH: EVQLVESGGGLVQPGGSLRLSCAASGFTFSSYWMSWVRQAPGKGLECVANIKQDGSEEYYVDSVKGRFTISRDNAKNSLYLQMNSLRAEDTAVYYCARGSSSWYYYNYGMDVWGQGTTVTVSS
VL: B2 VL with N32D, T84A, L89R, H91Q, S93T, W96L, Q100G
notes: Fully human antibody from XenoMouse hybridoma; also called L3H3
B4: A9 (antibody, V domains shown)
VH: B2 VH
VL: DIQMTQSPSSLSASVGDRVTITCRASQGIRNNLGWYQQKPGKAPKRLIYAASSLQSGVPSRFSGSGSGTEFTLTISSLQPEDFTTYYCLQHNSYPWTFGQGTKVEIK
notes: also called antibody A9; L9H9
B5: A8 (antibody, V domains shown)
VH: QVQLQESGPGLVKPSETLSLTCTVSGGSINSFYWSWIRQPPGKGLEWIGYIYYSGSTNYNPSLKRRVTISVDTSKTQFSLKLSSVTAADTAVYYCARDSIAAPFDYWGQGTLVTVSS
VL: DIVMTQSPDSLAVSLGERATITCKSSQSILYSSNNKKYLVWYQQKPGQPPKLIIYWTSMRESGVPDRFSGSGSGTDFTLTISSLQAEDVAVYYCQQYYSTPWTFGQGTKVEIK
notes: also called antibody A8; L8H8
B6: A5 (antibody, V domains shown)
VH: B5 VH with R65S
VL: B5 VL with S82N
notes: also called antibody A5; L5H5
B7: A7 (antibody, V domains shown)
VH: QVQLVDSGGGVVQPGRSLRLSCAASGFTFISYGMHWVRQAPGKGLEWVAVIWYDGSTEYYADSVKGRFTISRDNSKNTLYLQMNSLRAEDTAVYYCARERQWLYHYGMDVWGQGTTVTVSS
VL: B4 VL with S26G, N32D, G34V, T84A, S93T, W96F, Q100P, E105D
notes: also called antibody A7; L7H7
B8: A13 (antibody, V domains shown)
VH: QVQLVQSGAEVKKPGASVKVSCKASGYTFTSYGISWVRQAPGQGLERMGWISAYNGNTNYAQKFQGRVTMTTDTSTTTAYMELRSLRSDDTAVYYCARDQDYYDSSGWGHWGQGTLVTVSS
VL: SYELTQPPSVSVSPGQTASITCSGDKLGDKYVCWYQQKPGQSPELVIYLDNKRPSGIPERFSGSNSGNTATLTISGTQAMDEADYYCQAWDSSTVFGGGTKLTVL
notes: also called antibody A13; L13H13
B9: A14 (antibody, V domains shown)
VH: B8 VH with A24T, R47W, A53P, T74K, T77S, G109D, H110P
VL: B8 VL with V32A, C33F, E44V, I47F, L49H, N51T, Y86H
notes: also called antibody A14; L14H14

Key:
[1] = target: T1, recombinant human activin A (mature); experiment: Biacore premix competition: 2 nM rhActivinA + 20 nM antibody over immobilized AKA1
A/B13-39 = target: T2, A/B13-39; experiment: Biacore blocking: 100 nM antibody + diluted conditioned medium (CM) of the ligand over ActRIB-Fc surface
A/B82-107 = target: T3, A/B82-107; experiment: as above
[2] = target: T1, recombinant human activin A (mature); experiment: cell-based or functional assay
[3] = target: T1, recombinant human activin A (mature); experiment: KinExA solution equilibrium, activin A-coated beads
Method: Solution-based equilibrium-binding assays using KinExA™ technology (Sapidyne Instruments, Inc.) were used to determine the dissociation equilibrium (KD) of activin A binding to antibody molecules. This solution-based assay is considered to be more sensitive than the BIAcore assay in some instances. Reacti-Gel™ 6× was pre-coated with about 50 μg/ml activin A overnight, and then blocked with BSA. 30 pM and 100 pM of antibody samples were incubated with various concentrations (0.5 pM to 5 nM) of activin A in sample buffer at room temperature for 8 hours before being run through the activin A-coated beads. The amount of the bead-bound antibody was quantified by fluorescent (Cy5) labeled goat anti-human-Fc antibody at 1 mg/ml in superblock. The binding signal was proportional to the concentration of free antibody at equilibrium with a given activin A concentration. KD was obtained from the nonlinear regression of the competition curves using a dual-curve one-site homogeneous binding model provided in the KinEx ATM software (Sapidyne Instruments, Inc.). […] A2 and A3 bound to activin A at ˜15 pM and ˜8 pM, respectively.

BMP4 = target: T4, BMP4; experiment: BIAcore, antibody pre-incubated with ligand, ActRIIB/Fc on chip
Method: (§1) These assays were performed using BlAcore® technology, to determine the selectivity of binding of antibodies A1, A2 and A3 to various activins and other TGF-β family members, including activin A, activin B, activin AB, inhibin A, GDF-8, GDF-11, TGF-β-1, TGF-β-3, and BMP4 (all from R & D Systems). […] Because BlAcore assays detect changes in the refractive index, the difference between the response detected with injection over the immobilized receptor surfaces compared with the response detected with injection over the control surface in the absence of any antibody represents the actual binding of the various ligands to the receptor. With pre-incubation of antibodies and activin and TGF-β molecules, a change (increase or decrease) in binding response indicates antibody binding to the TGFβ family of molecules. The antibodies all bound to activin A but not to activin B, GDF-8, GDF-11, TGF-β-1, TGF-β-3, and BMP4, thus indicating specificity for activin A.

GDF-8 = target: T5, GDF-8; experiment: as above
Method: as §1

GDF-11 = target: T6, GDF-11; experiment: as above
Method: as §1

TGF-β-1 = target: T9, TGF-β-1 (UniProt P01137 279-390); experiment: as above
T9 construct: Bought
Method: as §1

TGF-β-3 = target: T7, TGF-β-3; experiment: as above
Method: as §1

activin B = target: T8, activin B; experiment: affinity analysis of Example 15 (antibody immobilized on a surface)
[4] = target: T1, recombinant human activin A (mature); experiment: affinity analysis of Example 15 (method of the KD not given)
[5] = target: T1, recombinant human activin A (mature); experiment: BIAcore blocking assay, 1 nM activin A; competitor rhActivin RIB/Fc chimera on chip
Method: (§2) Blocking assays were conducted on immobilized recombinant human activin RIB-Fc chimera surfaces, recombinant human activin RIIB-Fc chimera surfaces, and recombinant human RIIA-Fc chimera recombinant surfaces, as described in Example 5. Monoclonal antibodies A1, A2, AKA1, and AKA2 on each chimera surface were incubated with 1 nM activin A, and the relative binding response (%) was measured.

[6] = target: T1, recombinant human activin A (mature); experiment: Biacore: 1 nM Activin A + sample over rhActivin RIIB/Fc Chimera surface; rising ('carry on') curve
Method: as §2

[7] = target: T1, recombinant human activin A (mature); experiment: Biacore blocking: 1 nM Activin A + antibody over rhActRIB-Fc chimera surface. No unit in the drawn table; M by Table 7, which prints this value rounded as 0.18 nM

T9 sequence (P01137 279-390 limits assumed): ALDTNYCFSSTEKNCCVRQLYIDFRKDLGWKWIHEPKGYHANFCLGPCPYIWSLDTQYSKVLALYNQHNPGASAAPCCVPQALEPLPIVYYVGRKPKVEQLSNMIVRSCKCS

Binder | binding result [1] | binding result (A/B13-39) | binding result (A/B82-107) | further results
B1 | binds | binds | binds | 
B2 |  | binds |  | Cell IC50 (nM); luciferase activity of C2C12/pMARE reporter cells, activin A fixed at 4 nM [2]: < 3 nM; Kd [3]: ~0.015 nM; binding result (BMP4): no binding; binding result (GDF-8): no binding; binding result (GDF-11): no binding; binding result (TGF-β-1): no binding; binding result (TGF-β-3): no binding; binding result (activin B): no binding; Kd [4]: ~0.025 nM; EC50 [5]: 0.18 nM; EC50 (read off the curve) [6]: ~1 nM; EC50 [7]: 0.177 nM
B3 |  | binds | no binding (tested: 100 nM) | Cell IC50 (nM); luciferase activity of C2C12/pMARE reporter cells, activin A fixed at 4 nM [2]: < 3 nM; Kd [3]: ~0.008 nM; binding result (BMP4): no binding; binding result (GDF-8): no binding; binding result (GDF-11): no binding; binding result (TGF-β-1): no binding; binding result (TGF-β-3): no binding; binding result (activin B): no binding; Kd [4]: ~0.011 nM
B4 |  | binds | no binding (tested: 100 nM) | 
B5 | binds | binds | binds | 
B6 | binds | binds | binds | 
B7 | binds | binds | no binding (tested: 100 nM) | 
B8 | binds | binds | binds | 
B9 | binds | no binding (tested: 100 nM) | binds | 
